Patent US20200308299A1, “ANTI-GPC-1 ANTIBODY” (National University Corporation Kochi University, priority 2017, published 2020)
Numbering of substitutions follows the chain as printed.

Experiments:
TE14 cells = experiment: ADC assay combining anti-GPC-1 antibody and MMAF binding secondary antibody, TE14 cells; format: cell-based; conditions: primary antibody plus MMAF secondary antibody
Protocol: FIG. 1 depicts a schematic diagram of an ADC used in an assay. This Example used a secondary antibody (MORADEC) to the anti-GPC1 antibody made in Example 1, to which an anticancer agent (MMAF) was bound via a linker.
2000 TE14 cells were added to a 96-well plate at 80 μl. The cells were cultured overnight at 37° C. in a 5% CO2 incubator. The next day, 10 μl of an anticancer agent bound secondary antibody and 10 μl of a primary antibody concentrated 10-fold relative to the final concentration was added to each well, so that the total amount was 100 μl. The cells were cultured for 6 days at 37° C. in a 5% CO2 incubator. The cell viability was measured by using a CellTiter-Glo Luminescent Cell Viability Assay reagent to detect the amount of ATP. RPMI1640+10% FBS+1% PS was used as the medium. The final concentrations of the primary antibody were 0, 0.004, 0.0156, 0.0625, 0.25, and 1.0 nM. 2 μg/ml of Fab-aMFc-CL-MMAF (model number: AM202AF-50, Moradec) was used as the secondary antibody.

DU145 cells = experiment: ADC assay combining anti-GPC-1 antibody and MMAF binding secondary antibody in DU145 cells; format: cell-based; conditions: 3 days; for EC50 values against DU145 cells: primary antibody plus MMAF secondary antibody
Protocol: 2000 DU145 cells were added to a 96-well plate at 80 μl. The cells were cultured overnight at 37° C. in a 5% CO2 incubator. The next day, 10 μl each of anticancer agent binding secondary antibody (2 μg/ml) and primary antibody concentrated 10-fold relative to the final concentration was added to each well, so that the total amount was 100 μl. The cells were cultured for 3 days at 37° C. in a 5% CO2 incubator. The cell viability was measured by using a CellTiter-Glo Luminescent Cell Viability Assay reagent to detect the amount of ATP. RPMI1640+10% FBS+1% PS was used as the medium. The final concentrations of the primary antibodies were […]. 2 μg/ml of Fab-aMFc-CL-MMAF (model number AM202AF-50, Moradec) was used as the secondary antibody. The EC50 value was analyzed with GraphPad Prism 6. The same experiment was conducted using 4000 MDA-MB231 cells as the control.

B1: clone 01a042: anti-human Glypican-1 antibody, heavy chain SEQ ID NO: 162, light chain SEQ ID NO: 164 (antibody)
heavy: MKHLWFFLLLVAAPRWVLSQVQLQQPGAELAKPGASVKMSCKASGYTFTRYWMHWVKQRPGQGLEWIGYINPSSGYTEYNQKFKDKATLTADKSSSTAYMQLSSLTSEDSAVYYCVRLGDYSYYFDYWGQGTTLTVSSAKTTAPSVYPLAPVCGDTTGSSVTLGCLVKGYFPEPVTLTWNSGSLSSGVHTFPAVLQSDLYTLSSSVTVTSSTWPSQSITCNVAHPASSTKVDKKIEPRGPTIKPCPPCKCPAPNLLGGPSVFIFPPKIKDVLMISLSPIVTCVVVDVSEDDPDVQISWFVNNVEVHTAQTQTHREDYNSTLRVVSALPIQHQDWMSGKEFKCKVNNKDLPAPIERTISKPKGSVRAPQVYVLPPPEEEMTKKQVTLTCMVTDFMPEDIYVEWTNNGKTELNYKNTEPVLDSDGSYFMYSKLRVEKKNWVERNSYSCSVVHEGLHNHHTTKSFSRTPGK
light: MRLLAQLLGLLMLWVPGSSGDVVMTQTPLSLPVSLGDQASISCRSSQSIVHSNGNTYLEWYLQKPGQSPKLLIYKVSNRFSGVPDRFSGSGSGTDFTLKISRVEAEDLGVYYCFQGSHVPWTFGGGTKLELKRADAAPTVSIFPPSSEQLTSGGASVVCFLNNFYPKDINVKWKIDGSERQNGVLNSWTDQDSKDSTYSMSSTLTLTKDEYERHNSYTCEATHKTSTSPIVKSFNRNEC
With B1 the “EC50 values against TE14 cells” value (TE14 cells) was “excellent EC50 values” and the “EC50 values against DU145 cells” value (DU145 cells) was “excellent EC50 values”.

B2: clone 01a017: anti-human Glypican-1 antibody, heavy chain SEQ ID NO: 138, light chain SEQ ID NO: 140 (antibody)
heavy: MKHLWFFLLLVAAPRWVLSEVQLQQSGGELVRPGTSVKMSCKAAGYTFTNYWIGWVKQRPGHGLEWIGDLYPGGGYTHYNEKFKGKATLTADTSSSTAYMQLSSLTSEDSAIYYCARERVYFDGSRYFDVWGAGTTVTVSSAKTTAPSVYPLAPVCGDTTGSSVTLGCLVKGYFPEPVTLTWNSGSLSSGVHTFPAVLQSDLYTLSSSVTVTSSTWPSQSITCNVAHPASSTKVDKKIEPRGPTIKPCPPCKCPAPNLLGGPSVFIFPPKIKDVLMISLSPIVTCVVVDVSEDDPDVQISWFVNNVEVHTAQTQTHREDYNSTLRVVSALPIQHQDWMSGKEFKCKVNNKDLPAPIERTISKPKGSVRAPQVYVLPPPEEEMTKKQVTLTCMVTDFMPEDIYVEWTNNGKTELNYKNTEPVLDSDGSYFMYSKLRVEKKNWVERNSYSCSVVHEGLHNHHTTKSFSRTPGK
light: MRLLAQLLGLLMLWVPGSSGSIVMTQTPKFLPVSAGDRVTMTCKASQSVGNNVAWYQQKPGQSPKLLIYYASNRYTGVPDRFTGSGSGTDFTFTISSVQVEDLAVYFCQQHYSSPWTFGGGTKLEIKRADAAPTVSIFPPSSEQLTSGGASVVCFLNNFYPKDINVKWKIDGSERQNGVLNSWTDQDSKDSTYSMSSTLTLTKDEYERHNSYTCEATHKTSTSPIVKSFNRNEC
B2 was tested, and the “EC50 values against TE14 cells” value (TE14 cells) was “excellent EC50 values” and the “EC50 values against DU145 cells” value (DU145 cells) was “excellent EC50 values”.

B3: clone 02a014: anti-human Glypican-1 antibody, heavy chain SEQ ID NO: 178, light chain SEQ ID NO: 180 (antibody)
heavy: MKHLWFFLLLVAAPRWVLSEVQLQQSGPELVKPGASVKISCKASGYSFTGYYIHWVKQSPEKSLEWIGEINPSTGDITYNQKFKAKATLTVDKSSSTAYMQLKSLTSDDSAVYYCARERNYDRFAYWGQGTLVTVSSAKTTAPSVYPLAPVCGDTTGSSVTLGCLVKGYFPEPVTLTWNSGSLSSGVHTFPAVLQSDLYTLSSSVTVTSSTWPSQSITCNVAHPASSTKVDKKIEPRGPTIKPCPPCKCPAPNLLGGPSVFIFPPKIKDVLMISLSPIVTCVVVDVSEDDPDVQISWFVNNVEVHTAQTQTHREDYNSTLRVVSALPIQHQDWMSGKEFKCKVNNKDLPAPIERTISKPKGSVRAPQVYVLPPPEEEMTKKQVTLTCMVTDFMPEDIYVEWTNNGKTELNYKNTEPVLDSDGSYFMYSKLRVEKKNWVERNSYSCSVVHEGLHNHHTTKSFSRTPGK
light: MRLLAQLLGLLMLWVPGSSGSIVMTQTPALMAASPGEKVTITCSVSSSISSSNLHWYQQKSETSPKPWIYGTSNLASGVPVRFSGSGSGTSYSLTISSMEAEDAATYYCQQWSSYPLTFGAGTKLEIKRADAAPTVSIFPPSSEQLTSGGASVVCFLNNFYPKDINVKWKIDGSERQNGVLNSWTDQDSKDSTYSMSSTLTLTKDEYERHNSYTCEATHKTSTSPIVKSFNRNEC
With B3 the “EC50 values against TE14 cells” value (TE14 cells) was “excellent EC50 values” and the “EC50 values against DU145 cells” value (DU145 cells) was “excellent EC50 values”.

B4: clone 18: anti-Glypican-1 antibody, heavy chain SEQ ID NO: 202, light chain SEQ ID NO: 204; sequence from WO 2015/098112 (antibody)
heavy: AVTLDESGGGLQTPGGTLSLVCKASGFDFSSVNMFWVRQAPGKGLEFVAGIDNDATFTLYGSAVKGRASISRDNGQSTVRLQLNNLRAEDTGTYYCAKTLCSTTWGCGAYSAGDIDAWGHGTEVIVSS
light: ASTQPSSVSANPGETVKITCSGGGSSGYGYYGWYQQKSPGSAPVTVIYNNNKRPTDIPSRFSGALSGSTATLTITGVQVEDEAVYYCGSRDNTYVGIFGAGTTLTVL
B4 was tested, and the “EC50 values against TE14 cells” value (TE14 cells) was “excellent EC50 values” and the “EC50 values against DU145 cells” value (DU145 cells) was “excellent EC50 values”.

B5: clone 02a010: anti-human Glypican-1 antibody, heavy chain SEQ ID NO: 174, light chain SEQ ID NO: 176 (antibody)
heavy: MKHLWFFLLLVAAPRWVLSEVKLVESGGGLVKPGGSRKLSCAASGFTFSDYGMHWVRQAPEKGLEWVAYINSGSSTIYYADTVKGRFTISRDNAKNTLFLQMTSLRSGDTAMYYCARHSYYSYDVGGDYVMDYWGQGTSVTVSSAKTTAPSVYPLAPVCGDTTGSSVTLGCLVKGYFPEPVTLTWNSGSLSSGVHTFPAVLQSDLYTLSSSVTVTSSTWPSQSITCNVAHPASSTKVDKKIEPRGPTIKPCPPCKCPAPNLLGGPSVFIFPPKIKDVLMISLSPIVTCVVVDVSEDDPDVQISWFVNNVEVHTAQTQTHREDYNSTLRVVSALPIQHQDWMSGKEFKCKVNNKDLPAPIERTISKPKGSVRAPQVYVLPPPEEEMTKKQVTLTCMVTDFMPEDIYVEWTNNGKTELNYKNTEPVLDSDGSYFMYSKLRVEKKNWVERNSYSCSVVHEGLHNHHTTKSFSRTPGK
light: MRLLAQLLGLLMLWVPGSSGDIVLTQSPKFMSTSVGDRVSITCKASQDVGTAVAWYQQKPGQSPKLLIYWASTRHTGVPDRFTGSGSGTDFTLTISNVQSEDLADYFCQQYSSYPLTFGAGTKLEIKRADAAPTVSIFPPSSEQLTSGGASVVCFLNNFYPKDINVKWKIDGSERQNGVLNSWTDQDSKDSTYSMSSTLTLTKDEYERHNSYTCEATHKTSTSPIVKSFNRNEC
B5 was tested, and the “EC50 values against TE14 cells” value (TE14 cells) was “excellent EC50 values”, the “growth suppressing effect against DU145 cells” value (DU145 cells; primary antibody plus MMAF secondary antibody 2 μg/ml) was “high growth suppressing effect” and the “EC50 values against DU145 cells” value (DU145 cells) was “excellent EC50 values”.

B6: clone 02a002: anti-human Glypican-1 antibody, heavy chain SEQ ID NO: 166, light chain SEQ ID NO: 168 (antibody)
heavy: B5 heavy with N71S, G108E
light: B5 light with L24M, T25S
In the case of B6, the “EC50 values against TE14 cells” value (TE14 cells) is reported as “excellent EC50 values” and the “EC50 values against DU145 cells” value (DU145 cells) is reported as “excellent EC50 values”.

B7: clone 02b006: anti-human Glypican-1 antibody, heavy chain SEQ ID NO: 194, light chain SEQ ID NO: 196 (antibody)
heavy: B5 heavy with K22Q, N71S, G108E, M112I, A116V, S122N, V125I, D128Y, V130A
light: MRLLAQLLGLLMLWVPGSSGDIVLTQSPSSLSASLGERVSLTCRASQEISGYLSWLQQKPDGTIKRLIYAASTLDSGVPKRFSGSRSGSDYSLTISSLESEDFADYYCLQYASYPLTFGAGTKLEIKRADAAPTVSIFPPSSEQLTSGGASVVCFLNNFYPKDINVKWKIDGSERQNGVLNSWTDQDSKDSTYSMSSTLTLTKDEYERHNSYTCEATHKTSTSPIVKSFNRNEC
In the case of B7, the “EC50 values against TE14 cells” value (TE14 cells) is reported as “excellent EC50 values” and the “EC50 values against DU145 cells” value (DU145 cells) is reported as “excellent EC50 values”.
